Here are results for 36 variants from the Human Domainome abundance scans (Beltran et al. 2025).

The chains are these.
B1: POU domain, class 2, transcription factor 3, residues 186 to 260; numbered along this chain, Q9UKI9 (parent)
chain: SDLEELEKFAKTFKQRRIKLGFTQGDVGLAMGKLYGNDFSQTTISRFEALNLSFKNMCKLKPLLEKWLNDAESSP

± gives the uncertainty stated by the source.

This data set covers variants of B1. Briefly: abundance fitness (aPCA) (normalised: wild type 0, dead -1); higher = more abundant; growth selection in yeast, the domain comes from the species named. The settings on record: Homo sapiens.
SDLEELEKFAKTFKQRRIKLGFTQGDVGLAMGKLYGNDFSQTTISRFEALNLSFKNMCKLKPLLEKWLTDAESSP [N69T]: the abundance fitness came to 0.033 ± 0.047.

Take SDLEELEKFAKTFKQRRIKLGFTQGDVGLAMGKLYGNDFSQTTISRFEALNLSFKNMCKLKPLLEKWLGDAESSP [N69G]: the abundance fitness amounted to 0.042 ± 0.033.

Regarding SDLEELEKFAKTFKQRRIKLGFTQGDVGLAMGKLYGNDFSQTTISRFEALNLSFKNMCKLKPLLEKWLYDAESSP [N69Y], the abundance fitness was -0.081 ± 0.099.

On to SDLEELEKFAKTFKQRRIKLGFTQGDVGLAMGKLYGNDFSQTTISRFEALNLSFKNMCKLKPLLEKWLSDAESSP [N69S], for which the abundance fitness came to 0.006 ± 0.04.

In the case of SDLEELEKFAKTFKQRRIKLGFTQGDVGLAMGKLYGNDFSQTTISRFEALNLSFKNMCKLKPLLEKWLLDAESSP [N69L], the abundance fitness was -0.068 ± 0.037.

Regarding SDLEELEKFAKTFKQRRIKLGFTQGDVGLAMGKLYGNDFSQTTISRFEALNLSFKNMCKLKPLLEKWLFDAESSP [N69F], the abundance fitness stood at 0.061 ± 0.068.

As for SDLEELEKFAKTFKQRRIKLGFTQGDVGLAMGKLYGNDFSQTTISRFEALNLSFKNMCKLKPLLEKWLADAESSP [N69A], the abundance fitness was -0.029 ± 0.045.

In the case of SDLEELEKFAKTFKQRRIKLGFTQGDVGLAMGKLYGNDFSQTTISRFEALNLSFKNMCKLKPLLEKWLEDAESSP [N69E], the abundance fitness was determined as 0.002 ± 0.04.

Turning to SDLEELEKFAKTFKQRRIKLGFTQGDVGLAMGKLYGNDFSQTTISRFEALNLSFKNMCKLKPLLEKWLHDAESSP [N69H], the abundance fitness amounted to 0.083 ± 0.13.

In the case of SDLEELEKFAKTFKQRRIKLGFTQGDVGLAMGKLYGNDFSQTTISRFEALNLSFKNMCKLKPLLEKWLDDAESSP [N69D], the abundance fitness was 0.026 ± 0.059.

Regarding SDLEELEKFAKTFKQRRIKLGFTQGDVGLAMGKLYGNDFSQTTISRFEALNLSFKNMCKLKPLLEKWLVDAESSP [N69V], the abundance fitness was -0.028 ± 0.036.

As to SDLEELEKFAKTFKQRRIKLGFTQGDVGLAMGKLYGNDFSQTTISRFEALNLSFKNMCKLKPLLEKWLMDAESSP [N69M], the abundance fitness is -0.008 ± 0.047.

As to SDLEELEKFAKTFKQRRIKLGFTQGDVGLAMGKLYGNDFSQTTISRFEALNLSFKNMCKLKPLLEKWLQDAESSP [N69Q], the abundance fitness is 0.033 ± 0.052.

For SDLEELEKFAKTFKQRRIKLGFTQGDVGLAMGKLYGNDFSQTTISRFEALNLSFKNMCKLKPLLEKWLKDAESSP [N69K], the abundance fitness is -0.125 ± 0.053.

As to SDLEELEKFAKTFKQRRIKLGFTQGDVGLAMGKLYGNDFSQTTISRFEALNLSFKNMCKLKPLLEKWLWDAESSP [N69W], the abundance fitness is 0.014 ± 0.05.

As for SDLEELEKFAKTFKQRRIKLGFTQGDVGLAMGKLYGNDFSQTTISRFEALNLSFKNMCKLKPLLEKWLPDAESSP [N69P], the abundance fitness is -0.326 ± 0.067.

SDLEELEKFAKTFKQRRIKLGFTQGDVGLAMGKLYGNDFSQTTISRFEALNLSFKNMCKLKPLLEKWLIDAESSP [N69I]: the abundance fitness came out at 0.018 ± 0.059.

SDLEELEKFAKTFKQRRIKLGFTQGDVGLAMGKLYGNDFSQTTISRFEALNLSFKNMCKLKPLLEKWLNDARSSP [E72R]: the abundance fitness is -0.122 ± 0.032.

As to SDLEELEKFAKTFKQRRIKLGFTQGDVGLAMGKLYGNDFSQTTISRFEALNLSFKNMCKLKPLLEKWLNDASSSP [E72S], the abundance fitness was -0.084 ± 0.042.

For the variant SDLEELEKFAKTFKQRRIKLGFTQGDVGLAMGKLYGNDFSQTTISRFEALNLSFKNMCKLKPLLEKWLNDACSSP [E72C], the abundance fitness was -0.071 ± 0.049.

Regarding SDLEELEKFAKTFKQRRIKLGFTQGDVGLAMGKLYGNDFSQTTISRFEALNLSFKNMCKLKPLLEKWLNDAGSSP [E72G], the abundance fitness is -0.089 ± 0.031.

On to SDLEELEKFAKTFKQRRIKLGFTQGDVGLAMGKLYGNDFSQTTISRFEALNLSFKNMCKLKPLLEKWLNDAQSSP [E72Q], for which the abundance fitness is -0.026 ± 0.055.

As for SDLEELEKFAKTFKQRRIKLGFTQGDVGLAMGKLYGNDFSQTTISRFEALNLSFKNMCKLKPLLEKWLNDAISSP [E72I], the abundance fitness was -0.213 ± 0.11.

As for SDLEELEKFAKTFKQRRIKLGFTQGDVGLAMGKLYGNDFSQTTISRFEALNLSFKNMCKLKPLLEKWLNDAPSSP [E72P], the abundance fitness is -0.269 ± 0.058.

SDLEELEKFAKTFKQRRIKLGFTQGDVGLAMGKLYGNDFSQTTISRFEALNLSFKNMCKLKPLLEKWLNDANSSP [E72N]: the abundance fitness was -0.002 ± 0.06.

In the case of SDLEELEKFAKTFKQRRIKLGFTQGDVGLAMGKLYGNDFSQTTISRFEALNLSFKNMCKLKPLLEKWLNDAKSSP [E72K], the abundance fitness was -0.133 ± 0.049.

As for SDLEELEKFAKTFKQRRIKLGFTQGDVGLAMGKLYGNDFSQTTISRFEALNLSFKNMCKLKPLLEKWLNDAFSSP [E72F], the abundance fitness is -0.24 ± 0.065.

Consider SDLEELEKFAKTFKQRRIKLGFTQGDVGLAMGKLYGNDFSQTTISRFEALNLSFKNMCKLKPLLEKWLNDAASSP [E72A], for which the abundance fitness is -0.033 ± 0.045.

For SDLEELEKFAKTFKQRRIKLGFTQGDVGLAMGKLYGNDFSQTTISRFEALNLSFKNMCKLKPLLEKWLNDADSSP [E72D], the abundance fitness is -0.037 ± 0.058.

For the variant SDLEELEKFAKTFKQRRIKLGFTQGDVGLAMGKLYGNDFSQTTISRFEALNLSFKNMCKLKPLLEKWLNDALSSP [E72L], the abundance fitness is -0.173 ± 0.036.

For SDLEELEKFAKTFKQRRIKLGFTQGDVGLAMGKLYGNDFSQTTISRFEALNLSFKNMCKLKPLLEKWLNDATSSP [E72T], the abundance fitness was -0.078 ± 0.055.

Turning to SDLEELEKFAKTFKQRRIKLGFTQGDVGLAMGKLYGNDFSQTTISRFEALNLSFKNMCKLKPLLEKWLNDAVSSP [E72V], the abundance fitness is -0.043 ± 0.04.

Turning to SDLEELEKFAKTFKQRRIKLGFTQGDVGLAMGKLYGNDFSQTTISRFEALNLSFKNMCKLKPLLEKWLNYAESSP [D70Y], the abundance fitness was -0.021 ± 0.062.

With SDLEELEKFAKTFKQRRIKLGFTQGDVGLAMGKLYGNDFSQTTISRFEALNLSFKNMCKLKPLLEKWLNAAESSP [D70A], the abundance fitness is -0.059 ± 0.043.

SDLEELEKFAKTFKQRRIKLGFTQGDVGLAMGKLYGNDFSQTTISRFEALNLSFKNMCKLKPLLEKWLNKAESSP [D70K]: the abundance fitness was -0.046 ± 0.058.

As for SDLEELEKFAKTFKQRRIKLGFTQGDVGLAMGKLYGNDFSQTTISRFEALNLSFKNMCKLKPLLEKWLNLAESSP [D70L], the abundance fitness was -0.09 ± 0.04.
